Experimental data: the supplement of paper PMC10065799, “High-throughput profiling of sequence recognition by tyrosine kinases and SH2 domains using bacterial peptide display” (eLife, 2023)

What was measured:
Hck = Hck (UniProt P08631); assay: phosphorylation enrichment, bacterial display (enrichment ratio); higher = better substrate or ligand; peptides without Tyr show the background
EPHB2 = EPHB2 (UniProt P29323); assay: as above
FGFR1 = FGFR1 (UniProt P11362); assay: as above
MERTK = MERTK (UniProt Q12866); assay: as above
c-Abl (mouse) = assay: as above
AncSZ = assay: as above
EPHB1 = EPHB1 (UniProt P54762); assay: as above
c-Src = assay: as above
Jak2 = Jak2 (UniProt O60674); assay: as above
Sequence of Jak2 (O60674 whole entry, looked up): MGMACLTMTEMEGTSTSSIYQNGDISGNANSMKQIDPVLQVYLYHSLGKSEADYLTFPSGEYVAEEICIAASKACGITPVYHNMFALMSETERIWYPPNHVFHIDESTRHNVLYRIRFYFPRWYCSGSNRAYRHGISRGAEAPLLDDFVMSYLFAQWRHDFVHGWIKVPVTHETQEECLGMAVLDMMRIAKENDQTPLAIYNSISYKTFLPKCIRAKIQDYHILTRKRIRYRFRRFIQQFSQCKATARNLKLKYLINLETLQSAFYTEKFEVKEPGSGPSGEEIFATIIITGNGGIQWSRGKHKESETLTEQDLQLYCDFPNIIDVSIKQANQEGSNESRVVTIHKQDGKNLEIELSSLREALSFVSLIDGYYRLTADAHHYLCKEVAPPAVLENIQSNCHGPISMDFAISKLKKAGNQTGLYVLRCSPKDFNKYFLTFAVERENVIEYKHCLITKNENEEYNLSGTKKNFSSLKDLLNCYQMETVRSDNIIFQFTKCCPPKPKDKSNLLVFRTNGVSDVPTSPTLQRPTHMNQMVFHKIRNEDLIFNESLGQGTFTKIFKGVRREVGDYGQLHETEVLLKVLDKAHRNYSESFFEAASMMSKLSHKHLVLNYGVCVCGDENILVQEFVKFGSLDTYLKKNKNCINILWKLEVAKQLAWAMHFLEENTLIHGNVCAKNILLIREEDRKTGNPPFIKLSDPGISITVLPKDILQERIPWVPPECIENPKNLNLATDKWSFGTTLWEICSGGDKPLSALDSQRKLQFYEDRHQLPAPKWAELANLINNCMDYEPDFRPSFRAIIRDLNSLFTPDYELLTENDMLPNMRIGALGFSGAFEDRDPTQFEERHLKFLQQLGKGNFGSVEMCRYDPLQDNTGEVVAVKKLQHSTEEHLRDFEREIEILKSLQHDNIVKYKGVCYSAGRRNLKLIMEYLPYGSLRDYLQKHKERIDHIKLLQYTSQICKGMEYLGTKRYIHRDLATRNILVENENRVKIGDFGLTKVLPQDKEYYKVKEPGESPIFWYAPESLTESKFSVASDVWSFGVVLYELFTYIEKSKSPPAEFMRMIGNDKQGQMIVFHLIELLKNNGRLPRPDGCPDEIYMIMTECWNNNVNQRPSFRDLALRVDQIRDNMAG

Fes = Fes (UniProt P07332); assay: as above
Sequence of Fes (P07332 whole entry, looked up): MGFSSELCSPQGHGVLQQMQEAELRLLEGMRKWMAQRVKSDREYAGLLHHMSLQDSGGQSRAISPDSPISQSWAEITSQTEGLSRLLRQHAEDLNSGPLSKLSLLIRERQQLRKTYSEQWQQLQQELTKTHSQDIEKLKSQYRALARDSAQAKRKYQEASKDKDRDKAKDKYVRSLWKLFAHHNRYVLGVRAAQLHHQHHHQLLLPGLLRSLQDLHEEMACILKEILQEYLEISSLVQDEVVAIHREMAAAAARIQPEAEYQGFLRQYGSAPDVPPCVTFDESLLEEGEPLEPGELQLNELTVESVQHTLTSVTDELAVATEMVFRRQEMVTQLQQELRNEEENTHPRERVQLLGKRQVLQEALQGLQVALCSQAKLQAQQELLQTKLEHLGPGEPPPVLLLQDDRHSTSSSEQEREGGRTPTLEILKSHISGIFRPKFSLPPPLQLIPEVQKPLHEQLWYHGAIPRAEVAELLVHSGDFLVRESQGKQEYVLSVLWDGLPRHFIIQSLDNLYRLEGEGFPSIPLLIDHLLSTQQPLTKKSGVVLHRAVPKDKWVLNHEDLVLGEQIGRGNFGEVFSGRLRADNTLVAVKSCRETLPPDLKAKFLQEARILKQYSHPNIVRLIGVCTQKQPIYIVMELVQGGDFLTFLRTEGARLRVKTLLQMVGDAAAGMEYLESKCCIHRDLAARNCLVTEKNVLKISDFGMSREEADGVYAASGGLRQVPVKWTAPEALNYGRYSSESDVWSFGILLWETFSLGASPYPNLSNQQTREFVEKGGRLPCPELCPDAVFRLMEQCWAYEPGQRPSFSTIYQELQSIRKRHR

Fer (mouse) = assay: as above
FGFR3 = FGFR3 (UniProt P22607); assay: as above
Sequence of FGFR3 (P22607 whole entry, looked up): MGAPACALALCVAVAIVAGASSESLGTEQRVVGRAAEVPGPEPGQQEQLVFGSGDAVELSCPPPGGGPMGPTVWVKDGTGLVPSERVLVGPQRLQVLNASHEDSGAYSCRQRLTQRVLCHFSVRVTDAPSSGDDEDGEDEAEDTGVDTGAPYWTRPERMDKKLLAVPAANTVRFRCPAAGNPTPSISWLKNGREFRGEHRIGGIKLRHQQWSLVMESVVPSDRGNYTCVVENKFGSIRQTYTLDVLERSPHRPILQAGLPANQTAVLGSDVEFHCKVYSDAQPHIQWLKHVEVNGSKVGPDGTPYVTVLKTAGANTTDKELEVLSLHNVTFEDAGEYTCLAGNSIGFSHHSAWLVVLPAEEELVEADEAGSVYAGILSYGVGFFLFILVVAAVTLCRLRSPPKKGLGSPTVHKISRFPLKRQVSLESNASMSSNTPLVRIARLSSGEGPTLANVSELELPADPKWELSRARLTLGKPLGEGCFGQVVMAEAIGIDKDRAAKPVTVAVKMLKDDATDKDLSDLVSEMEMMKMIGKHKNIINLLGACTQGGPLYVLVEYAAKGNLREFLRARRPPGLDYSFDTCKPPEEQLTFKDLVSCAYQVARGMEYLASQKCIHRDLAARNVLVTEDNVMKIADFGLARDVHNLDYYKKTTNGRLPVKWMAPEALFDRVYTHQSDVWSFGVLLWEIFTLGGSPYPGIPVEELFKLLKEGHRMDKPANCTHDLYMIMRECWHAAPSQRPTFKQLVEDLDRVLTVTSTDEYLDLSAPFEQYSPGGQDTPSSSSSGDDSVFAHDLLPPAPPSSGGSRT

Fyn = Fyn (UniProt P06241); assay: as above
Sequence of Fyn (P06241 whole entry, looked up): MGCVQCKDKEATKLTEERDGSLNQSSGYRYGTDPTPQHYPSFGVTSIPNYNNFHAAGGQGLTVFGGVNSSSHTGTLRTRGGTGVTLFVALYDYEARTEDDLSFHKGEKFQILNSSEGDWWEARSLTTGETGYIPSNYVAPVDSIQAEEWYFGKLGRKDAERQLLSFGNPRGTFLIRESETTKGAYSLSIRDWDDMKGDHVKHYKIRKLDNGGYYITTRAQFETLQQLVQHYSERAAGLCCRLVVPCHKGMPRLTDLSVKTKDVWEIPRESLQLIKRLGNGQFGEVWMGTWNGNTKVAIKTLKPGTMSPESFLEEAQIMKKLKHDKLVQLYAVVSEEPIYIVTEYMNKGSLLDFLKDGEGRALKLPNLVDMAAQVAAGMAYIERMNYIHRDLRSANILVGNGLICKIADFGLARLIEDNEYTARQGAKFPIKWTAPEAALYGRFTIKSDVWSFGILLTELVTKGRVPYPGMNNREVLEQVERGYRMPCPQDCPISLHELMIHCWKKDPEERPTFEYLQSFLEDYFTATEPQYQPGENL

c-Src SH2 = assay: SH2 binding enrichment of the phosphorylated peptide, bacterial display (enrichment ratio); higher = better substrate or ligand; peptides without Tyr show the background
Grb2 SH2 = Grb2 SH2 (UniProt P62993); assay: as above
Sequence of Grb2 SH2 (P62993 whole entry, looked up): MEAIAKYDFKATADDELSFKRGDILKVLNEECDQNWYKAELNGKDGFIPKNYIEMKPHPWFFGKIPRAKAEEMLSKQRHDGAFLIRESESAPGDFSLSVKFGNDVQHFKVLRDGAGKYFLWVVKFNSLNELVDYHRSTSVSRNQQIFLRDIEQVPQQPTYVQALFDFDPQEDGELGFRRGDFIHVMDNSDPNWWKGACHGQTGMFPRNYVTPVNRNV

SHP2-C SH2 = assay: as above
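Wherever SH2 binding enrichment of the phosphorylated peptide, bacterial display is given: peptide library displayed on the E. coli surface as eCPX fusions, selected cells deep-sequenced, score is each peptide's frequency after selection divided by its frequency in the input.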
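Wherever phosphorylation enrichment, bacterial display is given: 11-residue human phosphosite peptides and single-mutation variants displayed on the E. coli surface, counted by deep sequencing, each peptide's frequency after selection divided by its frequency in the unselected input library; frequency after pTyr selection over input frequency; kinase dosed for 20-30% of maximal phosphorylation in three min.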

Sequence of Hck (P08631 whole entry, looked up): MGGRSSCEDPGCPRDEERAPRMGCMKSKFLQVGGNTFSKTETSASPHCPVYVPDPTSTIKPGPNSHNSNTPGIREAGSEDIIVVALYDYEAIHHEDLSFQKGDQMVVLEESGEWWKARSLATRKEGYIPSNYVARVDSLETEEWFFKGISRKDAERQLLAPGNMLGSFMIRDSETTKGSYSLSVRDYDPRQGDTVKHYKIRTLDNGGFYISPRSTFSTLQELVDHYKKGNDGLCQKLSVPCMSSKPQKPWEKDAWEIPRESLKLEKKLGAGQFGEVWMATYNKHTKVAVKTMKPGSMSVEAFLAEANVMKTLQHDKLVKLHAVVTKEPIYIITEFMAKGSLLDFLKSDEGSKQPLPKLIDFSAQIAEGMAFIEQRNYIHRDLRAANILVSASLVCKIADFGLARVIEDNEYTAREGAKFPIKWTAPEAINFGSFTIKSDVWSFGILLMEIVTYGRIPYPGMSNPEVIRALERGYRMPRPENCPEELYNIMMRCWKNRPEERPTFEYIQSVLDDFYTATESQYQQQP
Sequence of FGFR1 (P11362 whole entry, looked up): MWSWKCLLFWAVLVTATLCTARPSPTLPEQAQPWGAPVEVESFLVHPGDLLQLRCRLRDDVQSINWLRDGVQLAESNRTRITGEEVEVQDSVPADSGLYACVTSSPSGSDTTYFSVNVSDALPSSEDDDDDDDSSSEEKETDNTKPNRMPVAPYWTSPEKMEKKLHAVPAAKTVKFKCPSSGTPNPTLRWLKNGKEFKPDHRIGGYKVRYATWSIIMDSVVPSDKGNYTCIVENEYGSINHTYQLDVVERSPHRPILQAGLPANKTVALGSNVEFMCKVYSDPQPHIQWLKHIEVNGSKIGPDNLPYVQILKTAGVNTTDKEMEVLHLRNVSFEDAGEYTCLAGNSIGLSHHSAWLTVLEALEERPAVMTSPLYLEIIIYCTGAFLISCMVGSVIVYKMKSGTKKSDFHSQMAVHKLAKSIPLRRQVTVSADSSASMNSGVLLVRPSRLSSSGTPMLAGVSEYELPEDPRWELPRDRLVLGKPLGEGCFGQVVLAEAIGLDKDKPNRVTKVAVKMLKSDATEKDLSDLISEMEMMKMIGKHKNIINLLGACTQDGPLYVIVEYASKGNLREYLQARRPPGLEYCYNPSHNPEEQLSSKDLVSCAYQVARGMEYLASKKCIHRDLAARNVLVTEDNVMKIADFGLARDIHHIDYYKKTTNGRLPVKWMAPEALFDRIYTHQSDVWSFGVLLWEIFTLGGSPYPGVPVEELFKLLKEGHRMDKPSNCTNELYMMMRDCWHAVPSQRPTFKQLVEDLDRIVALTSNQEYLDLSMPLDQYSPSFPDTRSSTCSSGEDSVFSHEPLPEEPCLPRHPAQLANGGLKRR

Sequence	phosphorylation enrichment (Hck)	phosphorylation enrichment (EPHB2)	phosphorylation enrichment (FGFR1)	phosphorylation enrichment (MERTK)	phosphorylation enrichment (c-Abl (mouse))	phosphorylation enrichment (AncSZ)	phosphorylation enrichment (EPHB1)	phosphorylation enrichment (c-Src)	phosphorylation enrichment (Jak2)	phosphorylation enrichment (Fes)	phosphorylation enrichment (Fer (mouse))	phosphorylation enrichment (FGFR3)	phosphorylation enrichment (Fyn)	SH2 binding enrichment (c-Src SH2)	SH2 binding enrichment (Grb2 SH2)	SH2 binding enrichment (SHP2-C SH2)
GGYTCYCDGKK [PROS1_Y266]	0.462	0.474	0.457	0.439	0.915	0.985	0.537	0.499	1.2	1.38	0.484	0.728	0.403	0.549	0.766	0.79
GHLFANDWISI [BEST1_Y227_Y227N_YF]	0.502	0.625	0.43	0.421	0.627	0.703	0.424	0.469	0.782	0.789	0.427	0.484	0.399	0.493	0.904	0.708
GIADDYDKKKL [EIF1_Y54]	0.512	0.565	0.465	0.383	0.667	0.882	0.456	0.377	0.845	0.943	0.4	0.565	0.467	0.452	0.931	0.496
GIVEDYRPRFY [ACVRL1_Y421_P424R]	0.537	0.615	0.409	0.674	0.585	0.7	0.375	0.464	0.619	0.952	0.519	0.521	0.447	0.481	0.882	0.757
GIVTGYLVLKE [DNMT3B_Y588_A585V]	0.505	0.494	0.553	0.524	0.833	1.07	0.684	0.448	1.31	1.4	0.647	0.895	0.492	0.735	1.11	1.31
GKTQQYDCKWY [BCR_Y751]	0.554	0.532	0.464	0.515	0.769	0.864	0.554	0.55	1.05	1.05	0.432	0.598	0.441	0.758	0.805	0.601
GKVFIYHGSSL [ITGA7_Y458]	0.571	0.614	0.596	0.364	0.672	1.19	0.655	0.369	1.02	1.3	0.546	0.761	0.42	0.598	0.996	0.707
GLCSYYETSKM [MAGED2_Y449_R446C]	0.926	1.11	6.32	1.25	0.955	1.39	1.67	1.81	1.3	1.18	1.01	4.99	0.68	1.2	0.818	0.72
GLDGRYLLRDS [SH2D1A_Y29_S28R]	0.395	0.448	0.531	0.41	0.441	0.651	0.423	0.436	0.51	0.734	0.637	0.488	0.372	0.515	0.817	0.7
GLNKDYRMVVN [HINT1_Y94_G93D]	0.437	0.44	0.51	0.424	0.447	0.652	0.426	0.415	0.566	0.605	0.448	0.504	0.455	0.451	0.734	0.635
GLRCGYGVLGG [KRTAP20-2_Y15_Y13C]	0.432	0.387	0.381	0.359	0.617	0.775	0.484	0.73	0.825	0.854	0.484	0.612	0.466	0.52	0.806	0.572
GMAHNYRNRSQ [AASS_Y188_S191R]	0.523	0.388	0.344	0.466	0.57	0.599	0.414	0.481	0.488	0.629	0.358	0.401	0.487	0.48	0.703	0.392
GMIQAYSSSQR [DES_Y5_S2I]	0.412	0.334	0.384	0.357	0.42	0.485	0.401	0.37	0.442	0.509	0.319	0.389	0.346	0.759	0.872	0.712
GMKIVYVYVKK [DNAI2_Y5_E2K]	0.459	0.594	0.479	0.418	0.801	1.11	0.567	0.473	0.899	1.12	0.605	0.587	0.466	0.646	1.23	0.741
GMTLSYLFWEP [NDUFS8_Y74_R77W]	0.629	0.737	4.73	1.43	1.32	1.85	0.875	0.659	5.21	1.59	3.7	3.63	0.501	0.737	0.984	0.916
GNYSGYDDAWD [POLR1C_Y36]	0.578	5.87	0.723	0.637	0.964	1.62	6.73	0.586	1.29	1.32	0.742	0.931	0.597	5.84	0.833	0.595
